In paper PMC4278837, “A Cyclic Peptidic Serine Protease Inhibitor: Increasing Affinity by Increasing Peptide Flexibility” (PLoS ONE, 2014) one finds Ki data, which are given here for two molecules.

Bridge positions count the residues as written; N and C are the ends. Ends that are not written are not given here.

Experiment in all cases: enzyme inhibition (steady state, chromogenic substrate S-2444); about 2 nM enzyme (purified or conditioned medium of transfected cells) pre-incubated 15 min with varied peptide in HBS (10 mM HEPES pH 7.4, 140 mM NaCl) with 0.1% BSA at 37°C; substrate about KM; fit for competitive inhibition; highest peptide concentration 400 µM
The target in assay [1] is muPA-K143A (murine).
For assay [2], the target named is muPA-K41A (murine).
Assay [3] deals with muPA-S190A (murine).
For assay [4], the target named is muPA-V213T (murine).
The target in assay [5] is muPA-Y99A (murine).

B1: mupain-1 (peptide)
peptide: CPAYSRYLDC
modifications: disulfide 1-10 (inferred)
A word on the Ki: it is a dissociation constant, usually derived from enzyme kinetics or from competition with a known ligand. Take B1: the Ki came to 4.88 µM in assay [1]; 4.29 µM in assay [2]; 1.6 µM in assay [3]; 0.246 µM in assay [4]; 26 µM in assay [5].

B2: Mupain-1 D9A (peptide)
peptide: CPAYSRYLAC
modifications: disulfide 1-10 (inferred)
Consider B2, for which the Ki in assay [1] stood at 4.34 µM; in assay [2] it was 0.27 µM; in assay [3], 3.02 µM; in assay [4] it was 0.373 µM; in assay [5], 27.2 µM.
